Reference: patent publication US20250002563A1

Molecular target: SARS-CoV-2 spike on pseudotyped virus particles (Wuhan-Hu-1 strain) (SARS-CoV-2) (UniProt P0DTC2)
Assay: cell-based or functional assay

Work on homotrimeric Nb20 yielded an IC50, pseudovirus luciferase assay of 3 pM.

In the case of homotrimeric Nb21, the IC50, pseudovirus luciferase assay is reported as 1.3 pM.
